According to patent publication US20180155451A1 (published 2018):
Changes are numbered by the printed parent chain. In names and notes the source's numbering stands.

T1: FcγRIIa H (human, UniProt P12318 34-217)
T1 construct: extracellular domain; also called FcgRIIa H; FcγRIIa type H; not shown: His tag attached to the C terminus
T1 sequence (looked up): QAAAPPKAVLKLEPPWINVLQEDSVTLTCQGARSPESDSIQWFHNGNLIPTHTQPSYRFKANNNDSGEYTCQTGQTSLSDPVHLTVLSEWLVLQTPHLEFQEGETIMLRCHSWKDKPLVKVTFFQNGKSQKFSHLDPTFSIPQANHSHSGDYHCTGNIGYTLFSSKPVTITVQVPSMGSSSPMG

T2: FcγRIIb (human, UniProt P31994 43-217)
T2 construct: extracellular domain; also called FcgRIIb; 2b; not shown: His tag attached to the C terminus
T2 sequence (looked up): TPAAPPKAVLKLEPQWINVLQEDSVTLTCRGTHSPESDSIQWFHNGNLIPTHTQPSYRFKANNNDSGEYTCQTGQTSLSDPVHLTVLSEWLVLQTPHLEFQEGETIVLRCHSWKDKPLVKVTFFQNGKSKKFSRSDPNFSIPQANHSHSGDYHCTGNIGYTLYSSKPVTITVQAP

B1: GpH7-TA1/GpH7-B3-15-02A/GpL16-k0 (antibody, human IgG1, kappa)
heavy 1: QVQLVQSGAEVKKPGASVTVSCKASGYTFTDYEMHWIRQPPGEGLEWIGAIDPKTGDTAYSESFQDRVTLTADKSTSTAYMELSSLTSEDTAVYYCTRFYSYTYWGQGTLVTVSSASTKGPSVFPLAPSSKSTSGGTAALGCLVKDYFPEPVTVSWNSGALTSGVHTFPAVLQSSGLYSLSSVVTVPSSSLGTQTYICNVNHKPSNTKVDKKVEPKSCDKTHTCPPCPAPEYLGGPSVFLFPPKPKDTLMISRTPEVTCVVVDVSHEDPEVKFNWYVDGVEVHNAKTKPREEQYNSTYRVVSVLTVLHQDWLNGKEYKCKVSNKALPAPIEKTISKAKGQPREPQVYTLPPSRKELTKNQVSLTCLVKGFYPSDIAVEWESNGQPENNYKTTPPVLDSDGSFFLYSKLTVDKSRWQQGNVFSCSVMHEALHNRYTQKSLSLSP
heavy 2: not shown
light: DIVMTQSPLSLPVTPGEPASISCQASESLVHSNRNTYLHWYLQKPGQSPQLLIYKVSNRFSGVPDRFSGSGSGTDFTLKISRVEAEDVGVYYCSQNTHVPPTFGQGTKVEIERTVAAPSVFIFPPSDEQLKSGTASVVCLLNNFYPREAKVQWKVDNALQSGNSQESVTEQDSKDSTYSLSSTLTLSKADYEKHKVYACEVTHQGLSSPVTKSFNRGEC
notes: H1 L234Y; H2 S298A
B2: GpH7-TA7/GpH7-B3/GpL16-k0 (antibody, human IgG1, kappa)
heavy 1: B1 heavy 1 with G234W, S296A
heavy 2: not shown
light: B1 light
notes: H1 L234Y, G236W and S298A
B3: GpH7-TA2/GpH7-B3-01-15Y/GpL16-k0 (antibody, human IgG1, kappa)
heavy 1: B1 heavy 1 with Y232L, G234W
heavy 2: not shown
light: B1 light
notes: H1 G236W; H2 L234Y
B4: GpH7-TA3/GpH7-B3-03-20W/GpL16-k0 (antibody, human IgG1, kappa)
heavy 1: B1 heavy 1 with Y232L, S296A
heavy 2: not shown
light: B1 light
notes: H1 S298A; H2 G236W
B5: GpH7-TA6/GpH7-B3-01-15Y/GpL16-k0 (antibody, human IgG1, kappa)
heavy 1: B1 heavy 1 with Y232L, G234W, S296A
heavy 2: not shown
light: B1 light
notes: H1 G236W and S298A; H2 L234Y
B6: GpH7-TA4/GpH7-B3/GpL16-k0 (antibody, human IgG1, kappa)
heavy 1: B1 heavy 1 with G234W
heavy 2: not shown
light: B1 light
notes: H1 L234Y and G236W
B7: GpH7-TA4/GpH7-B3-15-02A/GpL16-k0 (antibody, human IgG1, kappa)
heavy 1: B1 heavy 1 with G234W
heavy 2: not shown
light: B1 light
notes: H1 L234Y and G236W; H2 S298A
B8: GpH7-TA5/GpH7-B3/GpL16-k0 (antibody, human IgG1, kappa)
heavy 1: B1 heavy 1 with S296A
heavy 2: not shown
light: B1 light
notes: H1 L234Y and S298A
B9: GpH7-TA6/GpH7-B3/GpL16-k0 (antibody, human IgG1, kappa)
heavy 1: B1 heavy 1 with Y232L, G234W, S296A
heavy 2: not shown
light: B1 light
notes: H1 G236W and S298A
B10: GpH7-TA5/GpH7-B3-03-20W/GpL16-k0 (antibody, human IgG1, kappa)
heavy 1: B1 heavy 1 with S296A
heavy 2: not shown
light: B1 light
notes: H1 L234Y and S298A; H2 G236W
B11: GpH7-A5/GpH7-B3 variant S324_02A/GpL16-k0 (antibody, human IgG1, kappa)
heavy 1: not shown
heavy 2: not shown
light: B1 light
notes: Heterodimerized IgG1, mutation in the GpH7-B3 chain only; also called He Ab
B12: GpH7-A5/GpH7-B3 variant K326_12R/GpL16-k0 (antibody, human IgG1, kappa)
heavy 1: not shown
heavy 2: not shown
light: B1 light
notes: as for B11
B13: GpH7-A5/GpH7-B3 variant I332_03V/GpL16-k0 (antibody, human IgG1, kappa)
heavy 1: not shown
heavy 2: not shown
light: B1 light
notes: as for B11
B14: GpH7-A5/GpH7-B3 variant S324_09D/GpL16-k0 (antibody, human IgG1, kappa)
heavy 1: not shown
heavy 2: not shown
light: B1 light
notes: as for B11
B15: GpH7-A5/GpH7-B3 variant I332_18N/GpL16-k0 (antibody, human IgG1, kappa)
heavy 1: not shown
heavy 2: not shown
light: B1 light
notes: as for B11
B16: GpH7-A5/GpH7-B3 variant S324_04F/GpL16-k0 (antibody, human IgG1, kappa)
heavy 1: not shown
heavy 2: not shown
light: B1 light
notes: as for B11
B17: GpH7-A5/GpH7-B3 variant Y300_07I/GpL16-k0 (antibody, human IgG1, kappa)
heavy 1: not shown
heavy 2: not shown
light: B1 light
notes: as for B11
B18: GpH7-A5/GpH7-B3 variant Y300_08L/GpL16-k0 (antibody, human IgG1, kappa)
heavy 1: not shown
heavy 2: not shown
light: B1 light
notes: as for B11
B19: GpH7-A5/GpH7-B3 variant S324_15Y/GpL16-k0 (antibody, human IgG1, kappa)
heavy 1: not shown
heavy 2: not shown
light: B1 light
notes: as for B11
B20: GpH7-A5/GpH7-B3 variant A330_12R/GpL16-k0 (antibody, human IgG1, kappa)
heavy 1: not shown
heavy 2: not shown
light: B1 light
notes: as for B11
B21: GpH7-A5/GpH7-B3 variant H268_04F/GpL16-k0 (antibody, human IgG1, kappa)
heavy 1: not shown
heavy 2: not shown
light: B1 light
notes: as for B11
B22: GpH7-A5/GpH7-B3 variant Y296_16H/GpL16-k0 (antibody, human IgG1, kappa)
heavy 1: not shown
heavy 2: not shown
light: B1 light
notes: as for B11
B23: GpH7-A5/GpH7-B3 variant I332_19Q/GpL16-k0 (antibody, human IgG1, kappa)
heavy 1: not shown
heavy 2: not shown
light: B1 light
notes: as for B11
B24: GpH7-A5/GpH7-B3 variant Y300_06M/GpL16-k0 (antibody, human IgG1, kappa)
heavy 1: not shown
heavy 2: not shown
light: B1 light
notes: as for B11
B25: GpH7-A5/GpH7-B3 variant Q295_05P/GpL16-k0 (antibody, human IgG1, kappa)
heavy 1: not shown
heavy 2: not shown
light: B1 light
notes: as for B11
B26: GpH7-A5/GpH7-B3 variant S324_10E/GpL16-k0 (antibody, human IgG1, kappa)
heavy 1: not shown
heavy 2: not shown
light: B1 light
notes: as for B11
B27: GpH7-A5/GpH7-B3 variant Y296_09D/GpL16-k0 (antibody, human IgG1, kappa)
heavy 1: not shown
heavy 2: not shown
light: B1 light
notes: as for B11
B28: GpH7-A5/GpH7-B3 variant S324_16H/GpL16-k0 (antibody, human IgG1, kappa)
heavy 1: not shown
heavy 2: not shown
light: B1 light
notes: as for B11
B29: GpH7-A5/GpH7-B3 variant A330_11K/GpL16-k0 (antibody, human IgG1, kappa)
heavy 1: not shown
heavy 2: not shown
light: B1 light
notes: as for B11
B30: GpH7-A5/GpH7-B3 variant Y296_04F/GpL16-k0 (antibody, human IgG1, kappa)
heavy 1: not shown
heavy 2: not shown
light: B1 light
notes: as for B11
B31: GpH7-A5/GpH7-B3 variant S324_20W/GpL16-k0 (antibody, human IgG1, kappa)
heavy 1: not shown
heavy 2: not shown
light: B1 light
notes: as for B11
B32: GpH7-A5/GpH7-B3 variant I332_13S/GpL16-k0 (antibody, human IgG1, kappa)
heavy 1: not shown
heavy 2: not shown
light: B1 light
notes: as for B11
B33: GpH7-A5/GpH7-B3 variant Q295_07I/GpL16-k0 (antibody, human IgG1, kappa)
heavy 1: not shown
heavy 2: not shown
light: B1 light
notes: as for B11
B34: GpH7-A5/GpH7-B3 variant I332_16H/GpL16-k0 (antibody, human IgG1, kappa)
heavy 1: not shown
heavy 2: not shown
light: B1 light
notes: as for B11
B35: GpH7-A5/GpH7-B3 variant A330_19Q/GpL16-k0 (antibody, human IgG1, kappa)
heavy 1: not shown
heavy 2: not shown
light: B1 light
notes: as for B11
B36: GpH7-A5/GpH7-B3 variant D270_10E/GpL16-k0 (antibody, human IgG1, kappa)
heavy 1: not shown
heavy 2: not shown
light: B1 light
notes: as for B11
B37: GpH7-A5/GpH7-B3 variant A330_16H/GpL16-k0 (antibody, human IgG1, kappa)
heavy 1: not shown
heavy 2: not shown
light: B1 light
notes: as for B11
B38: GpH7-A5/GpH7-B3 variant Y296_18N/GpL16-k0 (antibody, human IgG1, kappa)
heavy 1: not shown
heavy 2: not shown
light: B1 light
notes: as for B11

molecular target: T3, FcγRIIIa extracellular domain with C-terminal His tag (human, UniProt P08637 17-208); assay: SPR relative binding; GpH7-A5/GpH7-B3/GpL16-k0 = 100
T3 construct: extracellular domain; also called FcgRIIIa; 3a; not shown: His tag at the C terminus
Protocol: Analysis of interaction between objective antibody and the FcγR was carried out using Biacore T100 (GE Healthcare). HBS-EP+ (GE Healthcare) was used as the running buffer, and the measurement temperature was set to 25° C. Chips produced by immobilizing the antigen peptide by the amine coupling method to a Series S Sencor Chip CM5 (GE Healthcare), or alternatively, chips produced by allowing preliminarily biotinylated antigen peptides to interact with and immobilize onto a Series S Sensor Chip SA (certified) (GE Healthcare) were used. Antibodies of interest were captured onto an antigen peptide-immobilized chip, and allowed to interact to each FcγR diluted with running buffer. To regenerate and repeatedly use the chip, the antibodies captured on the chip were washed off by reacting 10 mM glycine-HCl, pH 1.5.
The FcγR-binding activity of each antibody was assessed primarily using as an indicator the FcγR-binding activity and dissociation constant for FcγR.

T3 sequence (P08637 17-208): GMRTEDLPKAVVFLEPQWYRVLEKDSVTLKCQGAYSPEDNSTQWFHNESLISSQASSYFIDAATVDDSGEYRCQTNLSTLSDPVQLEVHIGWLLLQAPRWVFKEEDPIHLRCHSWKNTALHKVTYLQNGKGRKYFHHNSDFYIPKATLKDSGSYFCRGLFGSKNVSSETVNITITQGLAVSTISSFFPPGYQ

| FcγRIIIa BINDING ACTIVITY | Binder |
| --- | --- |
| 142 % of control | B1 |
| 201 % of control | B2 |
| 130 % of control | B3 |
| 70 % of control | B4 |
| 103 % of control | B5 |
| 168 % of control | B6 |
| 151 % of control | B7 |
| 208 % of control | B8 |
| 228 % of control | B9 |
| 97 % of control | B10 |

molecular target: T1, FcγRIIa H; assay: SPR (Biacore), antibody captured, FcγR as analyte; binding relative to GpH7-A5/GpH7-B3/GpL16-k0 = 100

| He/Con_2aH | Binder |
| --- | --- |
| 102 control = 100 | B11 |
| 101 control = 100 | B12 |
| 105 control = 100 | B13 |
| 106 control = 100 | B14 |
| 110 control = 100 | B15 |
| 101 control = 100 | B16 |
| 108 control = 100 | B17 |
| 108 control = 100 | B18 |
| 102 control = 100 | B19 |
| 108 control = 100 | B20 |
| 111 control = 100 | B21 |
| 104 control = 100 | B22 |
| 108 control = 100 | B23 |
| 105 control = 100 | B24 |
| 103 control = 100 | B25 |
| 103 control = 100 | B26 |
| 104 control = 100 | B27 |
| 102 control = 100 | B28 |
| 109 control = 100 | B29 |
| 100 control = 100 | B30 |
| 103 control = 100 | B31 |
| 110 control = 100 | B32 |
| 102 control = 100 | B33 |
| 109 control = 100 | B34 |
| 102 control = 100 | B35 |
| 102 control = 100 | B36 |
| 101 control = 100 | B37 |
| 104 control = 100 | B38 |

molecular target: T2, FcγRIIb; assay: as above

| He/Con_2b | Binder |
| --- | --- |
| 78.3 control = 100 | B11 |
| 89.2 control = 100 | B12 |
| 80.7 control = 100 | B13 |
| 85.8 control = 100 | B14 |
| 89.9 control = 100 | B15 |
| 89.1 control = 100 | B16 |
| 74.5 control = 100 | B17 |
| 73.6 control = 100 | B18 |
| 88.2 control = 100 | B19 |
| 84.8 control = 100 | B20 |
| 89.6 control = 100 | B21 |
| 92.2 control = 100 | B22 |
| 94.3 control = 100 | B23 |
| 84.3 control = 100 | B24 |
| 67.5 control = 100 | B25 |
| 77.4 control = 100 | B26 |
| 98.9 control = 100 | B27 |
| 83.5 control = 100 | B28 |
| 95 control = 100 | B29 |
| 99.2 control = 100 | B30 |
| 87.5 control = 100 | B31 |
| 98.4 control = 100 | B32 |
| 84.3 control = 100 | B33 |
| 93 control = 100 | B34 |
| 90.8 control = 100 | B35 |
| 76.5 control = 100 | B36 |
| 87.6 control = 100 | B37 |
| 91.5 control = 100 | B38 |
